The target in assay [1] is human CD38 on cells (CHO-hCD38 / wild-type, and human tumor cell lines with positive CD38 expression) (human, UniProt P28907 1-300). Kind of assay: cell-based or functional assay.
For assay [2], the target named is T1, cynomolgus macaque CD38 on CHO cells (CHO-cynomolgus CD38) (cynomolgus macaque, UniProt Q5VAN0 1-301).
T1 construct: whole, on cells; also called CHO/mkCD38; mkCD38
The assay is described as follows: flow cytometry on CHO-cynomolgus CD38 cells. A general note: In flow cytometry, cells or beads pass a laser one at a time.

Assay [3] addresses T2, recombinant cynomolgus macaque CD38-his protein (Sino Biological Inc.) (cynomolgus macaque, UniProt Q5VAN0 44-301, limits assumed).
T2 construct: Bought protein; also called recombinant cynomolgus macaque CD38 protein; cynomolgus macaque CD38 protein; not shown: his tag
The assay is described as follows: direct ELISA, plate coated with recombinant cynomolgus macaque CD38-his protein. A general note: In an ELISA, binding on a coated surface is turned into a signal by an enzyme label.

B1: murine monoclonal antibody m29 (antibody, mouse IgG2b, V domains shown)
VH: QVQLQQSVSELRSPGSSVKLSCKDFDSEVFPTSYMSWVRQKPGHGFEWIGDILPNIGRIFYGEKFEDKAKLDADTVSNTAYLELTSLSSEDSAIYYCAREAYGSILGYWGQGTLVAVSA
VL: DIVMTQTPLSLPVGLGDQASISCRSSQSLLHSNGNTYLHWYLQKPGQSPKLLIYKVSNRFSGVPDRFSGSGSGTDFTLKISRVEAEDLGVYFCSQSSHLPWTFGGGTKLEIK
notes: also called mouse monoclonal antibody m29; m29 monoclonal antibody
In the case of B1, in assay [1], the “EC50 of CDC activity, Daudi target cells, 10% rabbit serum” value (shortened to “EC50 of CDC activity … 10% rabbit serum”) is approximately 30 ng/mL. For the same molecule, the binding result in assay [2] is “binds”.

B2: human-mouse chimeric antibody ch29G (antibody, V domains shown)
VH: QVQLQQSVSELRSPGSSVKLSCKDFDSEVFPTSYMSWVRQKPGHGFEWIGDILPNIGRIFYGEKFEDKAKLDADTVSNTAYLELTSLSSEDSAIYYCAREAYGSILGYWGQGTLVAVSA
VL: DIVMTQTPLSLPVGLGDQASISCRSSQSLLHSNGNTYLHWYLQKPGQSPKLLIYKVSNRFSGVPDRFSGSGSGTDFTLKISRVEAEDLGVYFCSQSSHLPWTFGGGTKLEIK
notes: not shown: human IgG1 heavy chain constant region; human kappa light chain constant region (C-domain)
As for B2, the “EC50 of CDC activity … 10% rabbit serum” value in assay [1] is approximately 30 ng/mL. Moreover, the binding result in assay [2] and in assay [3] was “binds” throughout.

B3: Daratumumab (antibody, V domains shown)
VH: EVQLLESGGGLVQPGGSLRLSCAVSGFTFNSFAMSWVRQAPGKGLEWVSAISGSGGGTYYADSVKGRFTISRDNSKNTLYLQMNSLRAEDTAVYFCAKDKILWFGEPVFDYWGQGTLVTVSS
VL: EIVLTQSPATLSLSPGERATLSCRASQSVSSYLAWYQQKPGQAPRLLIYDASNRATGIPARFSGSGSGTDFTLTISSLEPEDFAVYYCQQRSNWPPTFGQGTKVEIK
As to B3, the “EC50 of CDC activity … 10% rabbit serum” value in assay [1] worked out at 100 ng/mL.

These data come from patent publication US20210324102A1 (ACROIMMUNE BIOTECH, published 2021).
